Like-named read-outs stand apart in the source and are kept apart here.
Tests used:
[1] = target: MART-1:27-35 peptide presented by HLA-A2 on target cells (UniProt Q16655); test: cell-based or functional assay
[2] = target: MART-1 peptide on HLA-A*02:01 (human); test: peptide titration, transfected CD4+ T cells, peptide-pulsed target cells; upper bound 100 fold; minimal effect in CD8+ T cells; full-length, on cells
[3] = target: MART-1:27-35 peptide presented by HLA-A2 on target cells (UniProt Q16655); test: cell-based or functional assay; remark: listed apart in the source

IFN-γ; CD4+ T; 624.38 [1] [pg/mL]	IFN-γ; CD4+ T; 1300 [1] [pg/mL]	IFN-γ; CD8+ T; 624.38 [1] [pg/mL]	IFN-γ; CD8+ T; 1300 [1] [pg/mL]	peptide titration; CD4+ T; fold lower MART-1:27-35 concentration recognized vs WT DMF4 [1] [fold]	fold lower peptide concentration recognised than with the WT TCR [2] [fold]	IFN-γ; CD4+ T; 624.38 [3] [pg/mL]	IFN-γ; CD4+ T; 1300 [3] [pg/mL]	IFN-γ; CD8+ T; 624.38 [3] [pg/mL]	IFN-γ; CD8+ T; 1300 [3] [pg/mL]	Molecule
15800	11200	32800	78000	10 to 100						DMF4 TCR, WT α + β51:A (G51A)
3220	3480	47700	32800							DMF4 anti-MART-1 TCR, wild type α and β chains
					> 10					DMF4 β51:A
						20400	11100	36400	91800	DMF4 TCR, αLA (T93L/G94A) + WT β (TCR, part only; not given: wild type beta chain, part only) TCR alpha: GQQLNQSPQSMFIQEGEDVSMNCTSSSIFNTWLWYKQDPGEGPVLLIALYKAGELTSNGRLTAQFGITRKDSFLNISASIPSDVGIYFCAGGLANQFYFGTGTSLTVIPNIQNPDPAVYQLRDSKSSDKSVCLFTDFDSQTNVSQSKDSDVYITDKTVLDMRSMDFKSNSAVAWSNKSDFACANAFNNSIIPEDTFFPSPESSCDVKLVEKSFETDTNLNFQNLSVIGFRILLLKVAGFNLLMTLRLWSS

From patent US20100297093A1
